T1: ADAMTS4 (human, UniProt O75173 213-685, limits assumed)
T1 sequence (looked up): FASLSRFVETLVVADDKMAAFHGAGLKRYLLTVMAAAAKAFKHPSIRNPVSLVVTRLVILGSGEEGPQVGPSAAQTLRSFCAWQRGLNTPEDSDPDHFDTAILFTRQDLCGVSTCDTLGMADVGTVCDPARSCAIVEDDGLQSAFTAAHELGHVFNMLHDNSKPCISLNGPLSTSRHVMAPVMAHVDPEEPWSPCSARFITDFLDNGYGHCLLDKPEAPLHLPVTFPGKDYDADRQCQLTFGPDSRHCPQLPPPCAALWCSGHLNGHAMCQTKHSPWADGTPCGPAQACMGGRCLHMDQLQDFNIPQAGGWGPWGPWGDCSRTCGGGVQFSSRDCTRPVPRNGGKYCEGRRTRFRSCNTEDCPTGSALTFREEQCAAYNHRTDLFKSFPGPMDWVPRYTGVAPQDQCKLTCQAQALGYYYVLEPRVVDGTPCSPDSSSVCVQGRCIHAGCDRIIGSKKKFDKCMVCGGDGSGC

T2: ADAMTS5 (human, UniProt Q9UNA0 262-622, limits assumed)
T2 sequence (looked up): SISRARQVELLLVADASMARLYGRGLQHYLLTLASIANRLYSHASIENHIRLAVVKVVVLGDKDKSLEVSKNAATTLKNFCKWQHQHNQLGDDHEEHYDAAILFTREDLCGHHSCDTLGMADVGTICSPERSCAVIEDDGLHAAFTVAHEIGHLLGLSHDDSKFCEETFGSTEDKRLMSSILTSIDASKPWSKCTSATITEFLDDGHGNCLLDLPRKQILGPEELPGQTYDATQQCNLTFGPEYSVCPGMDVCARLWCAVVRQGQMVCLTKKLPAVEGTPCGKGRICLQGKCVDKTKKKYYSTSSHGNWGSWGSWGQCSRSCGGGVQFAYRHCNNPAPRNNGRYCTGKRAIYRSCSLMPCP


Assays:
Experiment in all cases: cell-based or functional assay
ADAMTS4 = molecular target: T1, ADAMTS4
ADAMTS5 = molecular target: T2, ADAMTS5
MMP13 = MMP13 (human, UniProt P45452 104-471, limits assumed)

Row | Protease Inhibition (% of WT) (ADAMTS4) | Protease Inhibition (% of WT) (ADAMTS5) | Protease Inhibition (% of WT) (MMP13) | Binder
1 | 168 % of WT | 309 % of WT | 52 % of WT | Variant A2M, bait region SEQ ID NO 103 (other) SVSGKPQYMVLVPSLLHTETTEKGCVLLSYLNETVTVSASLESVRGNRSLFTDLEAENDVLHCVAFAVPKSSSNEEVMFLTVQVKGPTQEFKKRTTVMVKNEDSLVFVQTDKSIYKPGQTVKFRVVSMDENFHPLNELIPLVYIQDPKGNRIAQWQSFQLEGGLKQFSFPLSSEPFQGSYKVVVQKKSGGRTEHPFTVEEFVLPKFEVQVTVPKIITILEEEMNVSVCGLYTYGKPVPGHVTVSICRKYSDASDCHGEDSQAFCEKFSGQLNSHGCFYQQVKTKVFQLKRKEYEMKLHTEAQIQEEGTVVELTGRQSSEITRTITKLSFVKVDSHFRQGIPFFGQVRLVDGKGVPIPNKVIFIRGNEANYYSNATTDEHGLVQFSINTTNVMGTSLTVRVNYKDRSPCYGYQWVSEEHEEAHHTAYLVFSPSKSFVHLEPMSHELPCGHTQTVQAHYILNGGTLLGLKKLSFYYLIMAKGGIVRTGTHGLLVKQEDMKGHFSISIPVKSDIAPVARLLIYAVLPTGDVIGDSAKYDVENCLANKVDLSFSPSQSLPASHAHLRVTAAPQSVCALRAVDQSVLLMKPDAELSASSVYNLLPEKDLTGFPGPLNDQDDEDCINRHNVYINGITYTPVSSTNEKDMYSFLEDMGLKAFTNSKIRKPKMCPQLEQYEMHGPEGLRVGGARGLEGGFAGLPNGGEEGVEEGKLRKYFPETWIWDLVVVNSAGVAEVGVTVPDTITEWKAGAFCLSEDAGLGISSTASLRAFQPFFVELTMPYSVIRGEAFTLKATVLNYLPKCIRVSVQLEASPAFLAVPVEKEQAPHCICANGRQTVSWAVTPKSLGNVNFTVSAEALESQELCGTEVPSVPEHGRKDTVIKPLLVEPEGLEKETTFNSLLCPSGGEVSEELSLKLPPNVVEESARASVSVLGDILGSAMQNTQNLLQMPYGCGEQNMVLFAPNIYVLDYLNETQQLTPEIKSKAIGYLNTGYQRQLNYKHYDGSYSTFGERYGRNQGNTWLTAFVLKTFAQARAYIFIDEAHITQALIWLSQRQKDNGCFRSSGSLLNNAIKGGVEDEVTLSAYITIALLEIPLTVTHPVVRNALFCLESAWKTAQEGDHGSHVYTKALLAYAFALAGNQDKRKEVLKSLNEEAVKKDNSVHWERPQKPKAPVGHFYEPQAPSAEVEMTSYVLLAYLTAQPAPTSEDLTSATNIVKWITKQQNAQGGFSSTQDTVVALHALSKYGAATFTRTGKAAQVTIQSSGTFSSKFQVDNNNRLLLQQVSLPELPGEYSMKVTGEGCVYLQTSLKYNILPEKEEFPFALGVQTLPQTCDEPKAHTSFQISLSVSYTGSRSASNMAIVDVKMVSGFIPLKPTVKMLERSNHVSRTEVSSNHVLIYLDKVSNQTLSLFFTVLQDVPVRDLKPAIVKVYDYYETDEFAIAEYNAPCSKDLGNADYKDDDDKGASHHHHHH
2 | 187 % of WT | 354 % of WT | 127 % of WT | Variant A2M, bait region SEQ ID NO 102 (other) SVSGKPQYMVLVPSLLHTETTEKGCVLLSYLNETVTVSASLESVRGNRSLFTDLEAENDVLHCVAFAVPKSSSNEEVMFLTVQVKGPTQEFKKRTTVMVKNEDSLVFVQTDKSIYKPGQTVKFRVVSMDENFHPLNELIPLVYIQDPKGNRIAQWQSFQLEGGLKQFSFPLSSEPFQGSYKVVVQKKSGGRTEHPFTVEEFVLPKFEVQVTVPKIITILEEEMNVSVCGLYTYGKPVPGHVTVSICRKYSDASDCHGEDSQAFCEKFSGQLNSHGCFYQQVKTKVFQLKRKEYEMKLHTEAQIQEEGTVVELTGRQSSEITRTITKLSFVKVDSHFRQGIPFFGQVRLVDGKGVPIPNKVIFIRGNEANYYSNATTDEHGLVQFSINTTNVMGTSLTVRVNYKDRSPCYGYQWVSEEHEEAHHTAYLVFSPSKSFVHLEPMSHELPCGHTQTVQAHYILNGGTLLGLKKLSFYYLIMAKGGIVRTGTHGLLVKQEDMKGHFSISIPVKSDIAPVARLLIYAVLPTGDVIGDSAKYDVENCLANKVDLSFSPSQSLPASHAHLRVTAAPQSVCALRAVDQSVLLMKPDAELSASSVYNLLPEKDLTGFPGPLNDQDDEDCINRHNVYINGITYTPVSSTNEKDMYSFLEDMGLKAFTNSKIRKPKMCPQLEQYEMHGPEGLRVGGYPGSSRGFYESDVMGRGHARLVHVEEPHTKLLRKYFPETWIWDLVVVNSAGVAEVGVTVPDTITEWKAGAFCLSEDAGLGISSTASLRAFQPFFVELTMPYSVIRGEAFTLKATVLNYLPKCIRVSVQLEASPAFLAVPVEKEQAPHCICANGRQTVSWAVTPKSLGNVNFTVSAEALESQELCGTEVPSVPEHGRKDTVIKPLLVEPEGLEKETTFNSLLCPSGGEVSEELSLKLPPNVVEESARASVSVLGDILGSAMQNTQNLLQMPYGCGEQNMVLFAPNIYVLDYLNETQQLTPEIKSKAIGYLNTGYQRQLNYKHYDGSYSTFGERYGRNQGNTWLTAFVLKTFAQARAYIFIDEAHITQALIWLSQRQKDNGCFRSSGSLLNNAIKGGVEDEVTLSAYITIALLEIPLTVTHPVVRNALFCLESAWKTAQEGDHGSHVYTKALLAYAFALAGNQDKRKEVLKSLNEEAVKKDNSVHWERPQKPKAPVGHFYEPQAPSAEVEMTSYVLLAYLTAQPAPTSEDLTSATNIVKWITKQQNAQGGFSSTQDTVVALHALSKYGAATFTRTGKAAQVTIQSSGTFSSKFQVDNNNRLLLQQVSLPELPGEYSMKVTGEGCVYLQTSLKYNILPEKEEFPFALGVQTLPQTCDEPKAHTSFQISLSVSYTGSRSASNMAIVDVKMVSGFIPLKPTVKMLERSNHVSRTEVSSNHVLIYLDKVSNQTLSLFFTVLQDVPVRDLKPAIVKVYDYYETDEFAIAEYNAPCSKDLGNADYKDDDDKGASHHHHHH
3 | 168 % of WT | 97 % of WT | 124 % of WT | Variant A2M, bait region SEQ ID NO 101 (other) SVSGKPQYMVLVPSLLHTETTEKGCVLLSYLNETVTVSASLESVRGNRSLFTDLEAENDVLHCVAFAVPKSSSNEEVMFLTVQVKGPTQEFKKRTTVMVKNEDSLVFVQTDKSIYKPGQTVKFRVVSMDENFHPLNELIPLVYIQDPKGNRIAQWQSFQLEGGLKQFSFPLSSEPFQGSYKVVVQKKSGGRTEHPFTVEEFVLPKFEVQVTVPKIITILEEEMNVSVCGLYTYGKPVPGHVTVSICRKYSDASDCHGEDSQAFCEKFSGQLNSHGCFYQQVKTKVFQLKRKEYEMKLHTEAQIQEEGTVVELTGRQSSEITRTITKLSFVKVDSHFRQGIPFFGQVRLVDGKGVPIPNKVIFIRGNEANYYSNATTDEHGLVQFSINTTNVMGTSLTVRVNYKDRSPCYGYQWVSEEHEEAHHTAYLVFSPSKSFVHLEPMSHELPCGHTQTVQAHYILNGGTLLGLKKLSFYYLIMAKGGIVRTGTHGLLVKQEDMKGHFSISIPVKSDIAPVARLLIYAVLPTGDVIGDSAKYDVENCLANKVDLSFSPSQSLPASHAHLRVTAAPQSVCALRAVDQSVLLMKPDAELSASSVYNLLPEKDLTGFPGPLNDQDDEDCINRHNVYINGITYTPVSSTNEKDMYSFLEDMGLKAFTNSKIRKPKMCPQLEQYEMHGPEGLRVGEEEGGGFYESDVMGRGHARLVHVEEPHTKLRKYFPETWIWDLVVVNSAGVAEVGVTVPDTITEWKAGAFCLSEDAGLGISSTASLRAFQPFFVELTMPYSVIRGEAFTLKATVLNYLPKCIRVSVQLEASPAFLAVPVEKEQAPHCICANGRQTVSWAVTPKSLGNVNFTVSAEALESQELCGTEVPSVPEHGRKDTVIKPLLVEPEGLEKETTFNSLLCPSGGEVSEELSLKLPPNVVEESARASVSVLGDILGSAMQNTQNLLQMPYGCGEQNMVLFAPNIYVLDYLNETQQLTPEIKSKAIGYLNTGYQRQLNYKHYDGSYSTFGERYGRNQGNTWLTAFVLKTFAQARAYIFIDEAHITQALIWLSQRQKDNGCFRSSGSLLNNAIKGGVEDEVTLSAYITIALLEIPLTVTHPVVRNALFCLESAWKTAQEGDHGSHVYTKALLAYAFALAGNQDKRKEVLKSLNEEAVKKDNSVHWERPQKPKAPVGHFYEPQAPSAEVEMTSYVLLAYLTAQPAPTSEDLTSATNIVKWITKQQNAQGGFSSTQDTVVALHALSKYGAATFTRTGKAAQVTIQSSGTFSSKFQVDNNNRLLLQQVSLPELPGEYSMKVTGEGCVYLQTSLKYNILPEKEEFPFALGVQTLPQTCDEPKAHTSFQISLSVSYTGSRSASNMAIVDVKMVSGFIPLKPTVKMLERSNHVSRTEVSSNHVLIYLDKVSNQTLSLFFTVLQDVPVRDLKPAIVKVYDYYETDEFAIAEYNAPCSKDLGNADYKDDDDKGASHHHHHH

Source: patent US20230250154A1 (CYTONICS, published 2023)
